In US20160185832A1 (University of Pennsylvania, published 2016):

Columns and labels:
[1] = molecular target: microtubule network of cultured human cells (hTERT-RPE1, 293T) (human, UniProt P68363 1-451; P07437 1-444); assay: cell-based or functional assay
[2] = molecular target: T1, pure, pre-polymerized, taxol-stabilized microtubules of bovine tubulin (Cytoskeleton) (bovine, UniProt P81947 1-451; Q6B856 1-445, limits assumed); assay: in vitro microtubule co-sedimentation, percent of construct in the microtubule pellet (FIG. 4D)
T1 construct: Polymer of alpha/beta tubulin dimers, polymerized with GTP and stabilized with 10 µM taxol; also called MT; MTs
T1 sequence (P81947 whole entry, chain 1 of 2): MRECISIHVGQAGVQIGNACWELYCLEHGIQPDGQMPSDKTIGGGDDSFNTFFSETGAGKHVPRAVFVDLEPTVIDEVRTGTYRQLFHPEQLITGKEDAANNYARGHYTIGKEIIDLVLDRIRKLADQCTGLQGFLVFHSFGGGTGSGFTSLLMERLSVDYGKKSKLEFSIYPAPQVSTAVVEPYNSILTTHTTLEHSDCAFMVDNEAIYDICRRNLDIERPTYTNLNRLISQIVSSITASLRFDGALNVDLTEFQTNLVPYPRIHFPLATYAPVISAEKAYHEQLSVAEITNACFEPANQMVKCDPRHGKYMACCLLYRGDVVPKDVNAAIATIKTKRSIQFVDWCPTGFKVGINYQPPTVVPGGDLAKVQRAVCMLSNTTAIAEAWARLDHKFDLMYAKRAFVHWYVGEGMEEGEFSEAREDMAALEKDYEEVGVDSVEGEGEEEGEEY
T1 sequence (Q6B856 whole entry, chain 2 of 2): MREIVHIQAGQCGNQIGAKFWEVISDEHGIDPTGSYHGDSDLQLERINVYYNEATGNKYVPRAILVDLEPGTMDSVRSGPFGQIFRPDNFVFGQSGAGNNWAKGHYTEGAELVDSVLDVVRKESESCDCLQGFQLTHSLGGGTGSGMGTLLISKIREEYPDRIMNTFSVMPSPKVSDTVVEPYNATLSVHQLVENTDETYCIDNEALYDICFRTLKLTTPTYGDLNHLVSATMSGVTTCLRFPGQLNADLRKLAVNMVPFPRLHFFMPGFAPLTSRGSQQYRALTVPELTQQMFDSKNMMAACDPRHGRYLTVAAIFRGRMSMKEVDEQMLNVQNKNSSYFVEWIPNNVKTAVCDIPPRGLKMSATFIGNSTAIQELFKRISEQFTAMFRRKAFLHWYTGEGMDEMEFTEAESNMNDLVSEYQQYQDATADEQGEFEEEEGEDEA
Method: Crude TNT T7 reaction products were diluted 1:1 in BRB80 supplemented with 1 mM GTP and 10 μM taxol. The diluted products were then incubated at 30° C. for 30 minutes in either the presence or absence of pure, pre-polymerized microtubules. Reactions were then centrifuged through a 40% sucrose cushion at 48,000×g for 30 minutes, the supernatant was collected, and the pellet washed once with warm BRB80 and resuspended in 1×SDS PAGE sample buffer. Both fractions were subjected to SDS-PAGE and transferred to nitrocellulose. The presence of tubulin in the pellets was confirmed by Ponceau staining, and GFP-tagged CEP290 constructs were detected by immunoblotting.

Sequence of microtubule network of cultured human cells (hTERT-RPE1, 293T) (P68363 whole entry, chain 1 of 2): as the sequence (P81947 whole entry, chain 1 of 2) above
Sequence of microtubule network of cultured human cells (hTERT-RPE1, 293T) (P07437 whole entry, chain 2 of 2): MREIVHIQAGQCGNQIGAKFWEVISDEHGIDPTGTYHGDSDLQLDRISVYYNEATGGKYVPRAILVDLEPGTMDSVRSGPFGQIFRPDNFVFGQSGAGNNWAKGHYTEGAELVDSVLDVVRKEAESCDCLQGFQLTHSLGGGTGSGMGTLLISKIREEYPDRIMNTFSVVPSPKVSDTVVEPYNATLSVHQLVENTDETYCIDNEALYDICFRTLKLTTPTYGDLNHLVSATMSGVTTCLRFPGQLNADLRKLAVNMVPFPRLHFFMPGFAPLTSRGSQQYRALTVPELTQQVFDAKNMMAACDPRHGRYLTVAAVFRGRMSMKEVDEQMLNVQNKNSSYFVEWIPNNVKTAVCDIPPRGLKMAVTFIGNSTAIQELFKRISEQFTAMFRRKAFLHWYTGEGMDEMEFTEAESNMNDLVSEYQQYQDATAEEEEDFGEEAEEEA

percent of transfected cells with increased microtubule acetylation and bundling [1] [%]	percent of transfected hTERT-RPE1 cells with a fibrillar localization pattern [1] [%]	percent associated with microtubules [2] [%]	Binder
~75	~80	~100	GFP fusion of CEP290 aa 580-1966 (other, The text says only 'lacking both termini'; also called truncation lacking both termini; construct lacking both the N- and C-termini; not shown: N-terminal GFP tag from pcDNA-DEST53 (Gateway)) TENISQGDRISERKLDLLSLKNMSEAQSKNEFLSRELIEKERDLERSRTVIAKFQNKLKELVEENKQLEEGMKEILQAIKEMQKDPDVKGGETSLIIPSLERLVNAIESKNAEGIFDASLHLKAQVDQLTGRNEELRQELRESRKEAINYSQQLAKANLKIDHLEKETSLLRQSEGSNVVFKGIDLPDGIAPSSASIINSQNEYLIHLLQELENKEKKLKNLEDSLEDYNRKFAVIRHQQSLLYKEYLSEKETWKTESKTIKEEKRKLEDQVQQDAIKVKEYNNLLNALQMDSDEMKKILAENSRKITVLQVNEKSLIRQYTTLVELERQLRKENEKQKNELLSMEAEVCEKIGCLQRFKEMAIFKIAALQKVVDNSVSLSELELANKQYNELTAKYRDILQKDNMLVQRTSNLEHLECENISLKEQVESINKELEITKEKLHTIEQAWEQETKLGNESSMDKAKKSITNSDIVSISKKITMLEMKELNERQRAEHCQKMYEHLRTSLKQMEERNFELETKFAELTKINLDAQKVEQMLRDELADSVSKAVSDADRQRILELEKNEMELKVEVSKLREISDIARRQVEILNAQQQSRDKEVESLRMQLLDYQAQSDEKSLIAKLHQHNVSLQLSEATALGKLESITSKLQKMEAYNLRLEQKLDEKEQALYYARLEGRNRAKHLRQTIQSLRRQFSGALPLAQQEKFSKTMIQLQNDKLKIMQEMKNSQQEHRNMENKTLEMELKLKGLEELISTLKDTKGAQKVINWHMKIEELRLQELKLNRELVKDKEEIKYLNNIISEYERTISSLEEEIVQQNKFHEERQMAWDQREVDLERQLDIFDRQQNEILNAAQKFEEATGSIPDPSLPLPNQLEIALRKIKENIRIILETRATCKSLEEKLKEKESALRLAEQNILSRDKVINELRLRLPATAEREKLIAELGRKEMEPKSHHTLKIAHQTIANMQARLNQKEEVLKKYQRLLEKAREEQREIVKKHEEDLHILHHRLELQADSSLNKFKQTAWDLMKQSPTPVPTNKHFIRLAEMEQTVAEQDDSLSSLLVKLKKVSQDLERQREITELKVKEFENIKLQLQENHEDEVKKVKAEVEDLKYLLDQSQKESQCLKSELQAQKEANSRAPTTTMRNLVERLKSQLALKEKQQKALSRALLELRAEMTAAAEERIISATSQKEAHLNVQQIVDRHTRELKTQVEDLNENLLKLKEALKTSKNRENSLTDNLNDLNNELQKKQKAYNKILREKEEIDQENDELKRQIKRLTSGLQGKPLTDNKQSLIEELQRKVKKLENQLEGKVEEVDLKPMKEKNAKEELIRWEEGKKWQAKIEGIRNKLKEKEGEVFTLTKQLNTLKDLFAKADKEKLTLQRKLKT
~75	–	~100	GFP fusion of CEP290 aa 1695-1966 (region M) (other, Also a construct without both termini; also called CEP290 region M alone; truncation M (GFP fusion); not shown: N-terminal GFP tag from pcDNA-DEST53 (Gateway)) DQSQKESQCLKSELQAQKEANSRAPTTTMRNLVERLKSQLALKEKQQKALSRALLELRAEMTAAAEERIISATSQKEAHLNVQQIVDRHTRELKTQVEDLNENLLKLKEALKTSKNRENSLTDNLNDLNNELQKKQKAYNKILREKEEIDQENDELKRQIKRLTSGLQGKPLTDNKQSLIEELQRKVKKLENQLEGKVEEVDLKPMKEKNAKEELIRWEEGKKWQAKIEGIRNKLKEKEGEVFTLTKQLNTLKDLFAKADKEKLTLQRKLKT
